The record followed here is patent US20120316071A1 (published 2012).

Experiment [1] addresses T1, Recombinant Human DLL4 (delta-like protein 4) (human, UniProt Q9NR61 27-524).
T1 construct: Bought recombinant human DLL4 (R&D Systems Cat#1506-D4/CF); also called rHuman DLL4
As to the kind of experiment: ELISA, DLL4-coated plate, 100 nM Fab. In general terms: ELISA stands for enzyme-linked immunosorbent assay.

Experiment [2] deals with T1, Recombinant Human DLL4 (delta-like …). As to the kind of experiment: ECL (MSD) binding assay, immobilised DLL4, 10 nM Fab.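 Further: fab binding read as electrochemiluminescence via a TAG-labelled detection antibody, 1 h incubations at 20 °C, antigen signal compared with each well's blank, ratio of at least 4 scored as binder.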
Experiment [3] has as its target T2, Recombinant Human DLL4 (delta-like protein 4) (human, UniProt Q9NR61 27-524).
T2 construct: also called rHuman DLL4; Delta-like 4
As to the kind of experiment: ELISA, DLL4 coated on plate, Fab at 100 nM.

B1: Fab VH5-51_IGHD5-18*01>3_IGHJ4*01 G100K/G104T & V3-4_IGLJ1*01 (Fab, V domains shown)
VH: EVQLVQSGAEVKKPGESLKISCKGSGYSFTSYWIGWVRQMPGKGLEWMGIIYPGDSDTRYSPSFQGQVTISADKSISTAYLQWSSLKASDTAMYYCARRKYSYTYDYFDYWGQGTLVTVSS
VL: QTVVTQEPSFSVSPGGTVTLTCGLSSGSVSTSYYPSWYQQTPGQAPRTLIYSTNTRSSGVPDRFSGSILGNKAALTITGAQADDESDYYCVLYMGSGISYVFGTGTKVTVL
notes: Fab; expressed with CH1 (His and Flag tags) and lambda CL from the expression plasmids; also called H:KT & L:wt; KT double mutant
Turning to B1, the “ELISA Signal [100 nM Fab]” value in experiment [1] is 0.01. Also, in experiment [2], the “ECL Signal [10 nM Fab]” value was determined as 42900.

B2: Fab VH5-51_IGHD5-18*01>3_IGHJ4*01 G100K/G104T & V3-4_IGLJ1*01 M94L (Fab, V domains shown)
VH: EVQLVQSGAEVKKPGESLKISCKGSGYSFTSYWIGWVRQMPGKGLEWMGIIYPGDSDTRYSPSFQGQVTISADKSISTAYLQWSSLKASDTAMYYCARRKYSYTYDYFDYWGQGTLVTVSS
VL: QTVVTQEPSFSVSPGGTVTLTCGLSSGSVSTSYYPSWYQQTPGQAPRTLIYSTNTRSSGVPDRFSGSILGNKAALTITGAQADDESDYYCVLYLGSGISYVFGTGTKVTVL
notes: Fab; expressed with CH1 (His and Flag tags) and lambda CL from the expression plasmids; also called H:KT & M94L
On to B2, for which, in experiment [1], the “ELISA Signal [100 nM Fab]” value amounted to 0.02. The “ECL Signal [10 nM Fab]” value in experiment [2] is 46800.

B3: Fab VH5-51_IGHD5-18*01>3_IGHJ4*01 G100K/G104T & V3-4_IGLJ1*01 M94E (Fab, V domains shown)
VH: EVQLVQSGAEVKKPGESLKISCKGSGYSFTSYWIGWVRQMPGKGLEWMGIIYPGDSDTRYSPSFQGQVTISADKSISTAYLQWSSLKASDTAMYYCARRKYSYTYDYFDYWGQGTLVTVSS
VL: QTVVTQEPSFSVSPGGTVTLTCGLSSGSVSTSYYPSWYQQTPGQAPRTLIYSTNTRSSGVPDRFSGSILGNKAALTITGAQADDESDYYCVLYEGSGISYVFGTGTKVTVL
notes: Fab; expressed with CH1 (His and Flag tags) and lambda CL from the expression plasmids; also called H:KT & M94E
With B3, the “ELISA Signal [100 nM Fab]” value in experiment [1] was determined as 0.01. In experiment [2], the “ECL Signal [10 nM Fab]” value was determined as 32500.

B4: Fab VH5-51_IGHD5-18*01>3_IGHJ4*01 G100K/G104T & V3-4_IGLJ1*01 M94N (Fab, V domains shown)
VH: EVQLVQSGAEVKKPGESLKISCKGSGYSFTSYWIGWVRQMPGKGLEWMGIIYPGDSDTRYSPSFQGQVTISADKSISTAYLQWSSLKASDTAMYYCARRKYSYTYDYFDYWGQGTLVTVSS
VL: QTVVTQEPSFSVSPGGTVTLTCGLSSGSVSTSYYPSWYQQTPGQAPRTLIYSTNTRSSGVPDRFSGSILGNKAALTITGAQADDESDYYCVLYNGSGISYVFGTGTKVTVL
notes: Fab; expressed with CH1 (His and Flag tags) and lambda CL from the expression plasmids; also called H:KT & M94N
Take B4: the “ELISA Signal [100 nM Fab]” value in experiment [1] was 0.01. In addition, the “ECL Signal [10 nM Fab]” value in experiment [2] came out at 51300.

B5: Fab VH5-51_IGHD5-18*01>3_IGHJ4*01 G100K/G104T G24T/S28R/G35V & V3-4_IGLJ1*01 V91L/S96P T53S (Fab, V domains shown)
VH: EVQLVQSGAEVKKPGESLKISCKTSGYRFTSYWIVWVRQMPGKGLEWMGIIYPGDSDTRYSPSFQGQVTISADKSISTAYLQWSSLKASDTAMYYCARRKYSYTYDYFDYWGQGTLVTVSS
VL: QTVVTQEPSFSVSPGGTVTLTCGLSSGSVSTSYYPSWYQQTPGQAPRTLIYSSNTRSSGVPDRFSGSILGNKAALTITGAQADDESDYYCLLYMGPGISYVFGTGTKVTVL
notes: Fab expressed in E. coli; heavy chain vector adds CH1 with His6 and Flag tags, light chain vector adds lambda CL; also called H:KT TRV & L:LP T53S
For B5, the “ELISA Signal-blank (100 nM Fab)” value in experiment [3] came to 0.18.

B6: Fab VH5-51_IGHD5-18*01>3_IGHJ4*01 G100K/G104T & V3-4_IGLJ1*01 M94F (Fab, V domains shown)
VH: EVQLVQSGAEVKKPGESLKISCKGSGYSFTSYWIGWVRQMPGKGLEWMGIIYPGDSDTRYSPSFQGQVTISADKSISTAYLQWSSLKASDTAMYYCARRKYSYTYDYFDYWGQGTLVTVSS
VL: QTVVTQEPSFSVSPGGTVTLTCGLSSGSVSTSYYPSWYQQTPGQAPRTLIYSTNTRSSGVPDRFSGSILGNKAALTITGAQADDESDYYCVLYFGSGISYVFGTGTKVTVL
notes: Fab; expressed with CH1 (His and Flag tags) and lambda CL from the expression plasmids; also called H:KT & M94F
Take B6: in experiment [1], the “ELISA Signal [100 nM Fab]” value was 0.01. Besides, the “ECL Signal [10 nM Fab]” value in experiment [2] stood at 26300.

B7: Fab VH5-51_IGHD5-18*01>3_IGHJ4*01 G100K/G104T G24T/S28R/G35V & V3-4_IGLJ1*01 V91L/S96P T53Y (Fab, V domains shown)
VH: EVQLVQSGAEVKKPGESLKISCKTSGYRFTSYWIVWVRQMPGKGLEWMGIIYPGDSDTRYSPSFQGQVTISADKSISTAYLQWSSLKASDTAMYYCARRKYSYTYDYFDYWGQGTLVTVSS
VL: QTVVTQEPSFSVSPGGTVTLTCGLSSGSVSTSYYPSWYQQTPGQAPRTLIYSYNTRSSGVPDRFSGSILGNKAALTITGAQADDESDYYCLLYMGPGISYVFGTGTKVTVL
notes: Fab expressed in E. coli; heavy chain vector adds CH1 with His6 and Flag tags, light chain vector adds lambda CL; also called H:KT TRV & L:LP T53Y
On to B7, for which, in experiment [3], the “ELISA Signal-blank (100 nM Fab)” value worked out at 0.22.

B8: Fab VH5-51_IGHD5-18*01>3_IGHJ4*01 G100K/G104T G24T/S28R/G35V & V3-4_IGLJ1*01 V91L/S96P T53V (Fab, V domains shown)
VH: EVQLVQSGAEVKKPGESLKISCKTSGYRFTSYWIVWVRQMPGKGLEWMGIIYPGDSDTRYSPSFQGQVTISADKSISTAYLQWSSLKASDTAMYYCARRKYSYTYDYFDYWGQGTLVTVSS
VL: QTVVTQEPSFSVSPGGTVTLTCGLSSGSVSTSYYPSWYQQTPGQAPRTLIYSVNTRSSGVPDRFSGSILGNKAALTITGAQADDESDYYCLLYMGPGISYVFGTGTKVTVL
notes: Fab expressed in E. coli; heavy chain vector adds CH1 with His6 and Flag tags, light chain vector adds lambda CL; also called H:KT TRV & L:LP T53V
Turning to B8, the “ELISA Signal-blank (100 nM Fab)” value in experiment [3] came to 0.29.

B9: Fab VH5-51_IGHD5-18*01>3_IGHJ4*01 G100K/G104T & V3-4_IGLJ1*01 M94G (Fab, V domains shown)
VH: EVQLVQSGAEVKKPGESLKISCKGSGYSFTSYWIGWVRQMPGKGLEWMGIIYPGDSDTRYSPSFQGQVTISADKSISTAYLQWSSLKASDTAMYYCARRKYSYTYDYFDYWGQGTLVTVSS
VL: QTVVTQEPSFSVSPGGTVTLTCGLSSGSVSTSYYPSWYQQTPGQAPRTLIYSTNTRSSGVPDRFSGSILGNKAALTITGAQADDESDYYCVLYGGSGISYVFGTGTKVTVL
notes: Fab; expressed with CH1 (His and Flag tags) and lambda CL from the expression plasmids; also called H:KT & M94G
Take B9: the “ELISA Signal [100 nM Fab]” value in experiment [1] turned out to be 0.01. Also, the “ECL Signal [10 nM Fab]” value in experiment [2] came out at 20300.
